Measured values published in patent publication US12221488B2, “APJ antibody, fusion protein thereof with Elabela, and pharmaceutical compositions and use thereofus01” (GMAX BIOPHARM LLC, priority 2018, dated 2025).
Where no end group is shown, it is not given here.

T1: hAPJ (Homo sapiens, UniProt P35414)
T1 construct: expressed in transfected cells; host or cells: CHO-DHFR- cells expressing hAPJ and a CRE-luciferase reporter
T1 sequence (P35414 1-380): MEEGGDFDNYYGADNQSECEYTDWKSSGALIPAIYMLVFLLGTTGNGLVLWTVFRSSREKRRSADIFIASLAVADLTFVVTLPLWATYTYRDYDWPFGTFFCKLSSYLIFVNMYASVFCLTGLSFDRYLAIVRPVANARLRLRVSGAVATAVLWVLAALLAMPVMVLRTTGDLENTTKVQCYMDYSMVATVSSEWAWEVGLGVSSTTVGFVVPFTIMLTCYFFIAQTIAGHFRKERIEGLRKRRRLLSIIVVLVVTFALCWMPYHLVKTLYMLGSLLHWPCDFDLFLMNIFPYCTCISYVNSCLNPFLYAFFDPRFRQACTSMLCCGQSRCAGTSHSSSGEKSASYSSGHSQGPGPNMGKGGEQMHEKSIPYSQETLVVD


Legend:
[1] = target: T1, hAPJ; assay: Reporter gene assay (hAPJ-CRE-Luciferase CHO-DHFR- cells) of in vitro activation of Elabela/APJ signaling pathway; format: cell-based; settings: for EC50: 0.6 μM forskolin, 6 hours at 37° C., Bright Glo readout; for blocking or activation of APJ receptor by the antibody: reporter gene assay
Method: 35000 hAPJ-CRE-Luciferase expressing CHO-DHFR-cells per well were seeded into 96 well plate, and cultured overnight at 37° C. The culture supernatant was removed the second day, cells were washed twice with serum-free medium, and the residue liquid was aspirated. 50 μL of 0.6 μM forskolin was added in 96 well plate in advance, then 50 μL of Elabela fusion protein or Elabela-11 polypeptide diluted in serum-free medium was added, and incubated at 37° C. for 6 hours. After stimulation, 100 μL Bright Glo chemical luminescence substrate (Promega) was added, then the cell lysate was transferred to white 96 well plate, and the relative intensity of […] was read in the SpectraMax L (Molecular Devices). The data were fitted with prism5.0 and EC50 was calculated.

[2] = target: T1, hAPJ; assay: FACS analysis of binding of APJ antibodies to CHO-DHFR-hAPJ cells; settings: mouse ascites antibody at 500 nM and 4 nM on CHO-DHFR-hAPJ; negative control 500 nM on blank CHO-DHFR- cells
Method: PBS containing EDTA was used to detach and collect 10^5 CHO-DHFR-hAPJ cells into 1.5 mL EP tubes. The supernatant was removed after centrifugation. The negative control sample was resuspended with a FACS loading buffer (PBS, 2% FBS). For the positive control, 200 μL antibody supernatant with certain concentration was added to resuspend cells and then incubated at room temperature; the cells were then centrifuged at 1500 rpm to remove the supernatant, washed with a FACS loading buffer and centrifuged again. The cells were resuspended followed by addition (200 μL/well) of a FITC labeled goat anti-mouse fluorescent secondary antibody at 1:50 dilution and incubated at room temperature for 30 min in the dark. Supernatant was removed after centrifugation, cells were washed with FACS loading buffer, centrifuged again and resuspended with the loading buffer for analysis.

Row | EC50 [1] | blocking or activation of APJ receptor by the antibody [1] | specific binding to hAPJ (FACS peak shift versus negative control) [2] | Molecule | other results
1 | 20.3 nM |  |  | L5H5 and Linker2-EA3: fusion protein of hAPJ antibody L5H5 and Linker2-EA3 (comprising SEQ ID NO: 123 and SEQ ID NO: 109) (GGGGSGGGGSQRRCMPLHSRVPMPF; also: fused to hAPJ antibody L5H5) | EC50 ([1]; listed as L5H5 and linker2-EA3): 20.3 nM
2 | 5.4 nM |  |  | L5H5 and Linker2-EA4: fusion protein of hAPJ antibody L5H5 and Linker2-EA4 (comprising SEQ ID NO: 123 and SEQ ID NO: 116) (GGGGSGGGGSQRRCLSHKGPMPF; also: fused to hAPJ antibody L5H5) | EC50 ([1]; listed as L5H5 and linker2-EA4): 5.43 nM
3 | 2.6 nM |  |  | L5H5 and Linker2-EA5: fusion protein of hAPJ antibody L5H5 and Linker2-EA5 (comprising SEQ ID NO: 123 and SEQ ID NO: 94) (GGGGSGGGGSQRRCMPLHSRVPAP; also: fused to hAPJ antibody L5H5) | EC50 ([1]; listed as L5H5 and linker2-EA5): 2.55 nM
4 |  | did not block or activate APJ receptor | shifted to the right obviously | L1H1: APJ antibody with light chain variable domain SEQ ID NO: 59 and heavy chain variable domain SEQ ID NO: 64 (antibody, listed as Mus musculus, V domains shown) VH: EVQLIETGGGLVQPTGSLQLSCAASGFPFNINAMNWVRQAPGKGLEWVARIRSKSNNYATYYADSVKDRFTISRDDSQSILYLQMNNLKTEDSAMYFCVRGPYLYAMDYWGQGTSVTVSS VL: DIQMNQSPSSLSASLGDTITITCHASQNIHVWLSWYQQKPGNIPKLLIYKASNLHTGVPSRFSGSGSGTGFTLTISSLQPEDIATYYCQQGHSYPLTFGGGTKLEIKR | 
5 |  | did not block or activate APJ receptor | shifted to the right obviously | L4H4: APJ antibody with light chain variable domain SEQ ID NO: 62 and heavy chain variable domain SEQ ID NO: 67 (antibody, listed as Mus musculus, V domains shown) VH: EIKLVESGGGLVKPRGSLKLSCAASGFTFSSYAMSWVRQTPEKRLEWVASISSGGSIYLPDSLKGRFTISRDNAWNILYLQMNSLKSEDTAMYYCTRGRGNSSAWFAYWGQGTLVTVSA VL: DVLMTQTPLSLPVSLGDQASISCRSDQSLVHRTGNTHLDWYLQKPGQSPKLLIYKVSNRFSGVPDRFSGSGSGTDFTLKISRVEAEDLGVYYCFQASHIPFTFGSGTKLEIKR | 
